Reference: paper PMC3317499, “Structural Insights into TIR Domain Specificity of the Bridging Adaptor Mal in TLR4 Signaling” (PLoS ONE, 2012)

T1: GST-TLR4-TIR (TIR domain of human TLR4, residues 670-839, GST fusion) (human, UniProt O00206 670-839)
T1 construct: Toll-like receptor 4 (TLR4), human, TIR domain residues 670-839; pGEX-6P-1 is a bacterial vector; source: E. coli (pGEX-6P-1), purified (glutathione Sepharose 4B, desalting)
T1 sequence (looked up): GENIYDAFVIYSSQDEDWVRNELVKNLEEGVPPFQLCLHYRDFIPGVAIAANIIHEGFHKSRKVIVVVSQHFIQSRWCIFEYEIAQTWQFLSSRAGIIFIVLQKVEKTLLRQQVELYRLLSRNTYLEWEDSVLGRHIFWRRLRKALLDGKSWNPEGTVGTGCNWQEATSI


Key:
[1] = biological target: T2, GST-MyD88-TIR (TIR domain of human MyD88, residues 148-296, GST fusion) (human, UniProt Q99836 148-296); assay: pull-down; GST fusion protein and Myc-Mal-TIR mixed with glutathione Sepharose 4B beads, 4°C, 3 hours; washed four times with 20 mM potassium phosphate pH 6.4, 50 mM KCl, 0.1 mM EDTA, 10 mM DTT, 0.5 mM PMSF, 0.5% Triton X-100; SDS-PAGE and anti-Myc immunoblot; conditions: both partners purified
T2 construct: Myeloid differentiation factor 88 (MyD88), human, TIR domain residues 148-296; pGEX-6P-1 is a bacterial vector; source: E. coli (pGEX-6P-1), purified (glutathione Sepharose 4B, desalting)

[2] = biological target: T1, GST-TLR4-TIR (TIR domain of human TLR4, …); assay: as above; conditions: both partners purified
[3] = biological target: T3, GST-Mal-TIR (TIR domain of human Mal, residues 79-221, GST fusion) (human, UniProt P58753 79-221); assay: as above; conditions: both partners purified
T3 construct: MyD88 adaptor-like protein (Mal, TIRAP), human, UniProtKB P58753, TIR domain residues 79-221; pGEX-6P-1 is a bacterial vector; also called wild type Mal-TIR purified as a GST fusion protein; source: E. coli (pGEX-6P-1), purified (glutathione Sepharose 4B, desalting)

[4] = biological target: the molecule itself; assay: crystal structure; Mal-TIR 79-221, space group P4(3)2(1)2, one molecule per asymmetric unit; dimers by crystallographic packing; 100 mM CHES pH 9.5, 150-300 mM NaCl, 10-20% glycerol, 10 mM DTT; 2.4 Å

T2 sequence (Q99836 148-296): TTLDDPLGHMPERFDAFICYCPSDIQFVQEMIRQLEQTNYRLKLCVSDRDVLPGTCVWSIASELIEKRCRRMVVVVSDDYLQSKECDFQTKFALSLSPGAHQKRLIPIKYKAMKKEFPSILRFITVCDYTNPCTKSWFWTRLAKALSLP

| binding result [1] | binding result [2] | binding result [3] | Binder | binding result [4] |
| --- | --- | --- | --- | --- |
| binds | binds | binds | Myc-Mal-TIR wild type (TIR domain of human MyD88 adaptor-like protein, residues 79-221, double-tagged with His6 and Myc) (domain or fragment, UniProt P58753 79-221, looked up, MyD88 adaptor-like protein (Mal, TIRAP), human, UniProtKB P58753, TIR domain residues 79-221; it replaced the S-tag, thioredoxin and the thrombin-cleavable segment of pET32a; also called wild-type Mal-TIR; TIRAP TIR domain; source: E. coli, purified (Ni-NTA, desalting)) SSRWSKDYDVCVCHSEEDLVAAQDLVSYLEGSTASLRCFLQLRDATPGGAIVSELCQALSSSHCRVLLITPGFLQDPWCKYQMLQALTEAPGAEGCTIPLLSGLSRAAYPPELRFMYYVDGRGPDGGFRQVKEAVMRYLQTLS | – |
| – | – | – | Mal-TIR (residues 79-221 of human Mal), crystallised form (domain or fragment, UniProt P58753 79-221, looked up, MyD88 adaptor-like protein (Mal, TIRAP), human, UniProtKB P58753, residues 79-221; The structure has disulfide bonds C89-C134 and C142-C174 and a DTT linking Cys91 and Cys157; A selenomethionine form was used for phasing; also called wild-type Mal-TIR; TIR domain of the human Mal molecule; source: E. coli BL21 (DE3) codon plus, purified (Ni-NTA, PreScission digestion, anion exchange)) SSRWSKDYDVCVCHSEEDLVAAQDLVSYLEGSTASLRCFLQLRDATPGGAIVSELCQALSSSHCRVLLITPGFLQDPWCKYQMLQALTEAPGAEGCTIPLLSGLSRAAYPPELRFMYYVDGRGPDGGFRQVKEAVMRYLQTLS | binds |
| binds | binds | – | Myc-Mal-TIR S180L (domain or fragment, human, UniProt P58753 79-221, looked up, Mal (TIRAP), human, UniProtKB P58753, TIR domain residues 79-221, natural variant S180L; also called Mal S180L; source: E. coli, purified (Ni-NTA, desalting)) SSRWSKDYDVCVCHSEEDLVAAQDLVSYLEGSTASLRCFLQLRDATPGGAIVSELCQALSSSHCRVLLITPGFLQDPWCKYQMLQALTEAPGAEGCTIPLLLGLSRAAYPPELRFMYYVDGRGPDGGFRQVKEAVMRYLQTLS | – |
| – | – | binds | Myc-Mal-TIR D87A (domain or fragment, human, UniProt P58753 79-221, looked up, Mal (TIRAP), human, UniProtKB P58753, TIR domain residues 79-221; source: E. coli, purified (Ni-NTA, desalting)) SSRWSKDYAVCVCHSEEDLVAAQDLVSYLEGSTASLRCFLQLRDATPGGAIVSELCQALSSSHCRVLLITPGFLQDPWCKYQMLQALTEAPGAEGCTIPLLSGLSRAAYPPELRFMYYVDGRGPDGGFRQVKEAVMRYLQTLS | – |
| binds | – | – | Myc-Mal-TIR D96N (domain or fragment, human, UniProt P58753 79-221, looked up, Mal (TIRAP), human, UniProtKB P58753, TIR domain residues 79-221, natural variant D96N; source: E. coli, purified (Ni-NTA, desalting)) SSRWSKDYDVCVCHSEENLVAAQDLVSYLEGSTASLRCFLQLRDATPGGAIVSELCQALSSSHCRVLLITPGFLQDPWCKYQMLQALTEAPGAEGCTIPLLSGLSRAAYPPELRFMYYVDGRGPDGGFRQVKEAVMRYLQTLS | – |
| binds | – | – | Myc-Mal-TIR E108A (domain or fragment, human, UniProt P58753 79-221, looked up, Mal (TIRAP), human, UniProtKB P58753, TIR domain residues 79-221; source: E. coli, purified (Ni-NTA, desalting)) SSRWSKDYDVCVCHSEEDLVAAQDLVSYLAGSTASLRCFLQLRDATPGGAIVSELCQALSSSHCRVLLITPGFLQDPWCKYQMLQALTEAPGAEGCTIPLLSGLSRAAYPPELRFMYYVDGRGPDGGFRQVKEAVMRYLQTLS | – |
| binds | binds | – | Myc-Mal-TIR D96A (domain or fragment, human, UniProt P58753 79-221, looked up, Mal (TIRAP), human, UniProtKB P58753, TIR domain residues 79-221; source: E. coli, purified (Ni-NTA, desalting)) SSRWSKDYDVCVCHSEEALVAAQDLVSYLEGSTASLRCFLQLRDATPGGAIVSELCQALSSSHCRVLLITPGFLQDPWCKYQMLQALTEAPGAEGCTIPLLSGLSRAAYPPELRFMYYVDGRGPDGGFRQVKEAVMRYLQTLS | – |
| binds | – | – | Myc-Mal-TIR F117A (domain or fragment, human, UniProt P58753 79-221, looked up, Mal (TIRAP), human, UniProtKB P58753, TIR domain residues 79-221; source: E. coli, purified (Ni-NTA, desalting)) SSRWSKDYDVCVCHSEEDLVAAQDLVSYLEGSTASLRCALQLRDATPGGAIVSELCQALSSSHCRVLLITPGFLQDPWCKYQMLQALTEAPGAEGCTIPLLSGLSRAAYPPELRFMYYVDGRGPDGGFRQVKEAVMRYLQTLS | – |
| binds | – | – | Myc-Mal-TIR L165A (domain or fragment, human, UniProt P58753 79-221, looked up, Mal (TIRAP), human, UniProtKB P58753, TIR domain residues 79-221; source: E. coli, purified (Ni-NTA, desalting)) SSRWSKDYDVCVCHSEEDLVAAQDLVSYLEGSTASLRCFLQLRDATPGGAIVSELCQALSSSHCRVLLITPGFLQDPWCKYQMLQAATEAPGAEGCTIPLLSGLSRAAYPPELRFMYYVDGRGPDGGFRQVKEAVMRYLQTLS | – |
| – | – | binds | Myc-Mal-TIR R192A (domain or fragment, human, UniProt P58753 79-221, looked up, Mal (TIRAP), human, UniProtKB P58753, TIR domain residues 79-221; source: E. coli, purified (Ni-NTA, desalting)) SSRWSKDYDVCVCHSEEDLVAAQDLVSYLEGSTASLRCFLQLRDATPGGAIVSELCQALSSSHCRVLLITPGFLQDPWCKYQMLQALTEAPGAEGCTIPLLSGLSRAAYPPELAFMYYVDGRGPDGGFRQVKEAVMRYLQTLS | – |
